Laboratory results from patent publication US6875581.

What follows are substances tested against calcineurin (recombinant or partly purified, phosphoserine phosphatase assay) (assay: cell-based or functional assay).

Row | Substance | Percentage of FK506 inhibitable RII-phosphopeptide activity after 20 min compared with the activity at 0 min; constant activity (1.67 U) [%] | Percentage of FK506 inhibitable RII-phosphopeptide activity after 20 min compared with the activity at 0 min; constant protein (3 ug) [%] | protection of calcineurin after calcium induced redox inactivation [%]
1 | purified human erythrocyte CuZnSOD (Sigma Aldrich) (from UniProt P00441 2-154) (enzyme) | 57 | 57 | 50 to 100
2 | recombinant human CuZnSOD mutation G93A (from UniProt P00441 2-154) (enzyme) | 21 | 16 | –
3 | recombinant human wild-type CuZnSOD (from UniProt P00441 2-154) (enzyme) | 56 | 70 | 50 to 100

Next, values leading:

Row | Percentage of FK506 inhibitable RII-phosphopeptide activity after 20 min compared with the activity at 0 min; constant activity (1.67 U) [%] | Percentage of FK506 inhibitable RII-phosphopeptide activity after 20 min compared with the activity at 0 min; constant protein (3 ug) [%] | protection of calcineurin after calcium induced redox inactivation [%] | Substance
4 | 8 | 22 | – | recombinant human CuZnSOD mutation A4V (from UniProt P00441 2-154) (enzyme)
5 | 32 | 42 | – | recombinant human CuZnSOD mutation D90A (from UniProt P00441 2-154) (enzyme)
